Paper PMC3689823

What was measured:
[1] = target: YFP-Clu (human); experiment: FRET or BRET; sensitized emission FRET in co-transfected HEK293T cells, CFP donor and YFP receptor, laser confocal microscope
[2] = target: YFP-Clu (human); experiment: FRET or BRET; receptor (acceptor) photobleaching FRET in co-transfected HEK293T cells, CFP donor and YFP receptor, bleached at 515 nm for 60 s

## CFP-SelR′ (from UniProt Q9NZV6 1-116) (enzyme)
[1]
  FRET efficiency: 40%
[2]
  FRET efficiency: 41.8%
